Assay results taken from patent US20210346432A1 (Memorial Sloan Kettering, published 2021).
No end group written: not given here. *: point of attachment. Biotin = O=C1N[C@H]2[C@H](CS[C@H]2CCCCC(=O)*)N1

How the values were obtained:
Test in all cases: peptide ELISA on streptavidin plate
ET140-p1 = target: T1, ET140-p1 (human)
T1 construct: also called peptide 1; ET140-pl
T1 peptide: Biotin-SGSGLQMAGQCSQNEYFDS
Description: (§1) The peptides were coated onto Streptavidin plates at 2 ug/mL in PBST (PBS+0.05% Tween-20). After washing and blocking with 3% BSA. […] “mIgG1” used in all Examples represents that the variable region is fully human and the Fc part is mouse IgG1. Then HRP anti-mouse IgG detection antibody was added to each well. Finally, the color was developed using TMB substrate. A450 was recorded for data analysis.

ET140-p3 = target: T2, ET140-p3 (human)
T2 construct: also called peptide 3
T2 peptide: Biotin-SGSGMAGQCSQNEYFDSLL
Description: as §1

ET140-p4 = target: T3, ET140-p4 (human)
T3 construct: also called peptide 4
T3 peptide: Biotin-SGSGAGQCSQNEYFDSLLH
Description: as §1

ET140-p6 = target: T4, ET140-p6 (human, cysteine pairing not given here)
T4 construct: also called peptide 6
T4 peptide: Biotin-SGSGQCSQNEYFDSLLHAC
Description: as §1

ET140-p14 = target: T5, ET140-p14 (human, cysteine pairing not given here)
T5 construct: also called peptide 14
T5 peptide: Biotin-SGSGDSLLHACIPCQLRCS
Description: as §1

ET140-p15 = target: T6, ET140-p15 (human, cysteine pairing not given here)
T6 construct: also called peptide 15
T6 peptide: Biotin-SGSGSLLHACIPCQLRCSS
Description: as §1

ET140-p17 = target: T7, ET140-p17 (human, cysteine pairing not given here)
T7 construct: also called peptide 17
T7 peptide: Biotin-SGSGLHACIPCQLRCSSNT
Description: as §1

ET140-p18 = target: T8, ET140-p18 (human, cysteine pairing not given here)
T8 construct: also called peptide 18
T8 peptide: Biotin-SGSGHACIPCQLRCSSNTP
Description: as §1

ET140-p19 = target: T9, ET140-p19 (human, cysteine pairing not given here)
T9 construct: also called peptide 19
T9 peptide: Biotin-SGSGACIPCQLRCSSNTPP
Description: as §1

ET140-p20 = target: T10, ET140-p20 (human, cysteine pairing not given here)
T10 construct: also called peptide 20
T10 peptide: Biotin-SGSGCIPCQLRCSSNTPPL
Description: as §1

ET140-p21 = target: T11, ET140-p21 (human, cysteine pairing not given here)
T11 construct: also called peptide 21
T11 peptide: Biotin-SGSGIPCQLRCSSNTPPLT
Description: as §1

ET140-p24 = target: T12, ET140-p24 (human, cysteine pairing not given here)
T12 construct: also called peptide 24
T12 peptide: Biotin-SGSGQLRCSSNTPPLTCQR
Description: as §1

ET140-p27 = target: T13, ET140-p27 (human, cysteine pairing not given here)
T13 construct: also called peptide 27
T13 peptide: Biotin-SGSGCSSNTPPLTCQRYCN
Description: as §1

ET140-p29 = target: T14, ET140-p29 (human, cysteine pairing not given here)
T14 construct: also called peptide 29
T14 peptide: Biotin-SGSGSNTPPLTCQRYCNAS
Description: as §1

ET140-p30 = target: T15, ET140-p30 (human, cysteine pairing not given here)
T15 construct: also called peptide 30
T15 peptide: Biotin-SGSGNTPPLTCQRYCNASV
Description: as §1

ET140-p31 = target: T16, ET140-p31 (human, cysteine pairing not given here)
T16 construct: also called peptide 31
T16 peptide: Biotin-SGSGTPPLTCQRYCNASVT
Description: as §1

ET140-p32 = target: T17, ET140-p32 (human, cysteine pairing not given here)
T17 construct: also called peptide 32
T17 peptide: Biotin-SGSGPPLTCQRYCNASVTN
Description: as §1

ET140-p33 = target: T18, ET140-p33 (human, cysteine pairing not given here)
T18 construct: also called peptide 33
T18 peptide: Biotin-SGSGPLTCQRYCNASVTNS
Description: as §1

ET140-p34 = target: T19, ET140-p34 (human, cysteine pairing not given here)
T19 construct: also called peptide 34
T19 peptide: Biotin-SGSGLTCQRYCNASVTNSV
Description: as §1

ET140-p35 = target: T20, ET140-p35 (human, cysteine pairing not given here)
T20 construct: also called peptide 35
T20 peptide: Biotin-SGSGTCQRYCNASVTNSVK
Description: as §1

ET140-p37 = target: T21, ET140-p37 (human)
T21 construct: also called peptide 37
T21 peptide: Biotin-SGSGQRYCNASVTNSVKGT
Description: as §1

ET140-p38 = target: T22, ET140-p38 (human)
T22 construct: also called peptide 38
T22 peptide: Biotin-SGSGRYCNASVTNSVKGTN
Description: as §1

ET140-p39 = target: T23, ET140-p39 (human)
T23 construct: also called peptide 39
T23 peptide: Biotin-SGSGYCNASVTNSVKGTNA
Description: as §1

Measured: binding result

B1: ET140-153 mIgG1 (antibody, V domains shown)
VH: QVQLVQSGAEVKKPGSSVKVSCKASGGTFSSYAISWVRQAPGQGLEWMGRIIPILGIANYAQKFQGRVTITADKSTSTAYMELSSLRSEDTAVYYCARGGYYSHDMWSEDWGQGTLVTVSS
VL: LPVLTQPPSASGTPGQRVTISCSGRSSNIGSNSVNWYRQLPGAAPKLLIYSNNQRPPGVPVRFSGSKSGTSASLAISGLQSEDEATYYCATWDDNLNVHYVFGTGTKVTVLG
notes: also called ET140-3 mIgG1; ET140-3
no binding (tested: 1 ug/mL): all assays above
